Laboratory results from patent US20260117244A1, “INHIBITORY RNA FOR THE CONTROL OF PHYTOPATHOGENS” (priority 2021, published 2026).

B1: 169 (nucleic acid, listed as Golovinomyces orontii)
chain: ATGGATATGGATATGAATATGAGCACAGGAATGAATGCAAGTCCAATAATCGGAGGCAACGAAGTCCATTCACATCCAATGGATATGGGAAGGGATATGTCGATGACTTTTTTTAATGGCATGACAACTAAACTCTATACCTCGACGTGGGCACCAAAAAGTTTAGGCACTTATATAGCGACTTGTTTATTTCTCATCGCTTTATCCAGCATATCTAGGTTTCTATTAGCCGCCAAGTTATGGCTAGAAACAACTTGGATGAACGCTGAGCTCAATCGAAAATATGTTACGGCTGCTGGAAAAGTACCAATCTCAGAACAGATTTCAATGAAGTCTGAAGCTCGGCAAATGGTACTATCTGGAAATGGTTTTGAAGAAGATGTGATAGTCGTTCAAAAGAAAGGATTCCGTGTACGGCCCTGGAGTATTACTGTGGATCCAATCCGAGCGCTGATAGACACCACAATTATGGCAGTGGGATTATTAATAATGCTGGCCGTTATGACAATGAATATTGGGTATTTTATATCGGTTTTGATAGGCACATTTATTGGCAGCCTAGTTGTCGGGCGTTATTCTCCTGAATAA
modifications: listed as DNA
B2: EnLIP1: dsRNA against E. necator TAG lipase 1 (target SEQ ID NO:183) (nucleic acid)
chain: ATTAATACTGGTGCTGTACAGCGCCTATTACACATTAATGAGGACTGTTTAACTGTCACTGTTCAAAAACCATCATATGCGACTCCCGACTCTAAGTTTCCTGTCGTGTTCTCTCTATTTTTTGGAGGGTTTGGTTTTGGTTCAACGGCAATATATGATGCCTCTAAACTTATTCAAGCAGGTATCAATGCAGGTAAACCTATCGTCTACGTTGCTGTAAATTATCGTTTGGGTGCATTTGGATGGCTTGGAGGAAGAGAAATTAAAGAGGCAGGTCTCGCTAATCTTGGCCATTACG
modifications: misc_feature 1..298: note = Inhibitory double stranded RNA; listed as RNA
B3: EnAPG9: dsRNA against E. necator Autophagy protein Apg9 (target SEQ ID NO:208) (nucleic acid, listed as Golovinomyces orontii)
chain: ATGCCGTCTATCCCCATCACTATCATTACTGGCTTTCTAGGGTCTGGTAAAACAACTCTCCTTCTCAATATTCTTCCTCAAATACTTGCCAAGAATCCGAAATATAAATTAGCGCTTCTCAAAAATGAATTTGGAGATTTGGCTGTCGATAGTCAACTTGCAGGCTCTTCTATCACTGGTGTTCGTGAGATTCTAAATGGCTGCATTTGCTGTAACCTCGTCGGCTCTCTCTCATCGGCCCTTGAGGAGCTCACAGAGAGTATTTCTCCCGACCGAATAGTGATTGAAACGTCTGGGTCAGCATTCCCTGCAACGCTAGCTATGGAGGTTAATCGACTAGCGCGGGAGACCCAGGGTAAATATGTTCTAGATGGTGTAGTGACTGTTATTGATGTCGAAAACTGGAAGGGATATGAAGATACTAGCTTTACCGCACGATTACAAGCTCGTTACACAGATCTTGTTGTTTTTAATAAGTGGGAGGATGTTGGTGAAAGGAGGTGGGACGAATGTTTAGATCGACTGGGTGATATGGAGGTTGAAATTCCATGGGTTAAGAGTCAGAGGGGATTTGTTGATATGGATATTATCTTTGGCCTTGATGGAGGACTAGCAAAAGAATTAGAGGGAGAAGTAGAGCAAGGCCTACATCAGCAAAAAAAAACGCACAAGGACGGCGAAAGTCACCAGAACGAGGTTGAGGTACTTTCTGTCACCCTTTCTAAAAAATCTGATATCTCCTCGACCATTACACGTCCGAATTCAGAGCTTACCCCAAAAATTGATACTGATGCTCTGCTGAAACTTCTCCAAACAGCACCCAAGGACGAGGTCTACCGGATAAAGTCAATCTTTACTTCTTCTACACCTATGCCTTCATCTACTCCTATATCATCTTCAGATCTATCAGAAACGCCAGTGTCTTCAGTTGCTGGCCCAAATAAATACATTCTAAATTGGTCATTTGGTCGCTGGACCTGCACACCTATGCCCTCCACTAATTCTTCAACCACAGGAGACAGCTTTGAGCACCCATCTAGCGAGGCCGTAGGTCAAGGAGAAGTTTTCCTTCGCATGATTATAATTCTCTCAAGAGGTGCTGGTAAGAAATGGAAAAAAAGACTTGAGGATGGAGGTTTTATACGTTTCAAGGGTGTGGCCGGAACCGACGTACAGAATTTAAATGTTGTTCCCATCAGTTAA
modifications: listed as DNA
B4: 179 (nucleic acid, listed as Golovinomyces orontii)
chain: ATGCAGATCTCACGCATCACATTTATCTCTTTCTTCATCGCCCTTGTCGCGGCTCATCCAACTCTTAATGAACGACAAACAATTACCATCCCAAAAATTCCTGAAGTTCCAGCCGTCCCCGAAGTTCCCGCTGTTCCTGAAGTACAAAAGCGTCAACAGACGATAACTGTTCCCACGATCCCCACGATTCCTACCGTGCCAGATGTTCCTGCTGACACACGAATAAAGCTGTCCACAAACTCAATGGCTACGCCAAACTCTATGCTGGACAAGAGACCTGAAGTGTGGCATATCCATGATAACCGGATAACTGGTCGGAAAATATTCAAAGCTAAATGA
modifications: listed as DNA
B5: 181 (nucleic acid, listed as Golovinomyces orontii)
chain: ATGTCTAATCAGCTAAAACATCCCTCTTTACTCATTCCAGGCCCCGTTGAGATTGACGATGCTGTCCTTCACTCTATGAGCCATCACAGATCCTCATCTTACTGCAGTGAGAGCCATGTGGACATATCGTTTATAAAAACTTTTGGAAAAACGTTGTACATGCTCAGGAAGCTATTCCAATCTAATGATCCTTACTCTCAACCATTCGTAATTTCCGGATCTGGTACCCTAGGATGGGATCTAGTAGCCGCAAATTTAGCGGAACGCGGTGATGATGTCTTAGTATTACACACGGGTTACTTTGCAGACTCTTTCTCCGATTGCTTTGAGACCTACGGGATAAACGTCACACAGCTTATAGCTCCGATTGGTTCAAGACCCCAACTAATAGAGATTGAAGAAGAATTATCAAAAAAGACCTACAAACTTCTAACAGTGACCCATGTCGATACCTCGACTGGCGTATTAAATGAACTGGAGCCAATTTCAGAAATAGTTCATCGGGTTTCTCCTGAGACCCTTGTAATTGTTGATGGAGTGTGCAGTGTCGGGTCTGAGGAGATCGCTTTCGACTCCTGGAAACTCGATGGAGTTATCACTGCAAGCCAGAAAGCAATTGGTGCACCGGCTGGTCTTTCCATCTCAATTTTCAGTGGCCGTGCGATTCAGTCATTTAATGACCGACAGACTCCTCCTGGGTCTTACTATGCATCATTCAAGAATTGGATGCCTATCATGCAGAGCTATGAAGCCCAAGAGCCTTCATATTTTGCAACTCCATCCATTCATTTGATCCATGCACTTCACACCTCTTTAACGCAAATTCTCTCACGCCCTCTTTCAGAGCGGTTCACTATTCACAGAGAAATATCTCAAAGAGTAAAAGAAGCAGTTTCTGGAATGGGATTAACTCAGTTGGCTGCCAATCCTGAAAATCAAGCAAACGGAATGACAGCAATATATTTGCCAGATAATATTAAAGCGAAAGACCTTTTAACCAAGATACTTCAAAAAGGAGTTGTTCTTGCTGGTGGATTACATAAAGAAATTGCTCATAAGTATATTCGCTTTGGTCATATGGGGGTGAGCGTGACCAAGCCTGAAAGGGGTGATATTGAACGAGCTATCAAAGCTTTGGAGACAAGTCTTTCAGAGTTAGGATATCGTAGAGAGAAACAGTCTTAG
modifications: listed as DNA

How the values were obtained:
G. orontii MGH1 = assay: Spray-induced gene silencing (SIGS), G. orontii spore production on A. thaliana (whole plant and detached leaf assays); assay type: in vivo, Golovinomyces orontii; conditions: topical dsRNA against G. orontii target (Gor Seq ID), n>=3
[1] = test system: grapevine powdery mildew E. necator; assay: Vineyard field trials of topical dsRNA: powdery mildew disease incidence and disease severity (Kearney and Armstrong sites); assay type: in vivo, Erysiphe necator; conditions: for powdery mildew disease incidence: Chenin Blanc, 3 weeks after end of treatments (June 23), untreated ~80%; for mean disease severity (percent of berries with powdery mildew per bunch): June 28, almost 4 weeks post dsRNA treatment, untreated 12%
Method: The tests were done at Kearney Agriculture Research and Extension Center, Parlier, CA (Fresno County) and Armstrong Plant Pathology Field Station at University of California, Davis, CA. Susceptible grapevine cultivars were tested—Sauvignon Blanc at Kearney and Chenin Blanc at Davis. In both cases, the Stihl backpack sprayer SR450 was used and sprayer calibration, and normalization was performed to ensure equal doses of treatment applied to each replicate. During the trial period, vines were irrigated by drip irrigation and the regular maintenance of weeding, herbicide and insecticide treatments were done by the Kearney or Davis site field staff. In early season, 2.0 gallons/5 replicates and in mid to late season 2.5 to 3.0 gallons/5 replicates were sprayed. All appropriate personal protective equipment (PPE) was used and required training was completed including pesticide application training and heat exhaustion training. A randomized block design was used with 5 replicates for each treatment. Two adjacent vines were used as one experimental unit and the area between two trunks (yellow box) was sprayed and assessed (FIG. 16).
The trial was conducted at Kearney Agricultural Research and Extension Center, Parlier, CA on blocks of the susceptible white wine variety Sauvignon Blanc. Total of 5 different gene targets from grapevine powdery mildew E. necator, EnCYP51 (SEQ ID NO:182), EnLIP1 (SEQ ID NO:183), EnICL2 (SEQ ID NO:186), EnMS (SEQ ID NO:188) and EnAPG9 (SEQ ID NO:208) were tested at this site by backpack spraying of the experimental units with dsRNA designed specifically against these target genes. The treatments were placed in a randomized block design with 5 replicates of each (dsRNA treatments 1-5), 5 replicates of Gold Standard (GS) and 5 replicates of untreated control (UT Control). Gold Standard refers to the pesticides normally used by growers to control powdery mildew: Sulfur and other chemical fungicides such as Rally, Quintec, and Luna. Between each treatment replicate, consisting of two vines, there was a spacer vine to avoid the spray drift from one treatment another.
FIG. 17 provides an overview of the treatment schedule at Kearney. A total of 4 treatments of dsRNA were performed between May and July, replacing the 4 final treatments of the GS. Data were collected at the times marked by the gray dots in FIG. 17. The monitoring of powdery mildew index data and manual scouting of disease in the field was used to adjust timing schedule per standard protocol (www2.ipm.ucanr.edu/weather/grape-powdery-mildew-risk-assessment-index/?src=redirect2refresh).
The total number of bunches per replicate (mean of 130) and the bunches with powdery mildew growth were counted and percent of infected bunches per replicate was calculated.
Disease severity was calculated by counting the number of infected berries compared to total berries in a bunch. 25 bunches from both sides of the canopy were assessed per replicate.
This trial was conducted at University of California Davis Plant Pathology Armstrong Facility on white wine variety Chenin Blanc. A total of 4 different gene targets from grapevine powdery mildew E. necator, EnLIP1 (Seq ID No:183), EnICL2 (Seq ID 186), EnMS (Seq ID No:188) and EnAPG9 (Seq ID No:208) were tested at this site by treating the vines with dsRNA designed against these target genes. A randomized block design with 5 replicates of each (treatments 1-5) and 5 replicates of untreated control (UT Control) was utilized. Spray protocols and spray volumes were the same as done by Akif Eskalen's team as shown on this link (Elfar et al. 2021, ucanr.edu/sites/eskalenlab/files/355630.pdf) and in Table 10. Eskalen's lab performed 3rd party commercial fungicide trials for the industry.
In this field trial, a total of 3 sprays of dsRNA were performed between May and early June (FIG. 21). For the dsRNA treatments, no parallel chemical treatments were performed prior to the dsRNA treatments. […]

Molecule | G. orontii Spore Production on Arabidopsis, Detached Leaf Assay, % reduction (G. orontii MGH1) | powdery mildew disease incidence ([1]; Armstrong site) | mean disease severity (percent of berries with powdery mildew per bunch) ([1]; Armstrong site) | further results
B1 | 54% |  |  | 
B2 |  | ~20% | 1% | 
B3 |  | ~20% | 1% | fold by which average disease incidence of untreated control increases faster than that of the dsRNA treatment (slopes) ([1]; Armstrong site, FIG. 22 panel B): 2.74 fold; mean disease incidence ([1]; Armstrong site, July 16, more than six weeks after dsRNA treatments): 24%; powdery mildew infection / disease in vineyard ([1]; topical spraying, vineyard field trials 2021, trial sites in California): effective
B4 |  |  |  | G. orontii Spore Production on Arabidopsis, Whole Plant Assay, % reduction (G. orontii MGH1; whole plant assay): 41%
B5 | 62% |  |  | 
